Columns and labels:
CheA (Escherichia coli) = CheA (Escherichia coli) (UniProt P07363); settings: cited from earlier work
[1] = target: cytoplasmic fragment of the E coli Asp receptor (CF4Q) (E. coli); assay: co-sedimentation

| fraction of CheA bound [1] | Molecule | Kd (CheA (Escherichia coli)) |
| --- | --- | --- |
| – | CheA (from UniProt P07363) | 490 nM |
| 88% | chemotaxis histidine kinase (CheA) (enzyme) MSMDISDFYQTFFDEADELLADMEQHLLVLQPEAPDAEQLNAIFRAAHSIKGGAGTFGFSVLQETTHLMENLLDEARRGEMQLNTDIINLFLETKDIMQEQLDAYKQSQEPDAASFDYICQALRQLALEAKGETPSAVTRLSVVAKSEPQDEQSRSQSPRRIILSRLKAGEVDLLEEELGHLTTLTDVVKGADSLSAILPGDIAEDDITAVLCFVIEADQITFETVEVSPKISTPPVLKLAAEQAPTGRVEREKTTRSNESTSIRVAVEKVDQLINLVGELVITQSMLAQRSSELDPVNHGDLITSMGQLQRNARDLQESVMSIRMMPMEYVFSRYPRLVRDLAGKLGKQVELTLVGSSTELDKSLIERIIDPLTHLVRNSLDHGIELPEKRLAAGKNSVGNLILSAEHQGGNICIEVTDDGAGLNRERILAKAASQGLTVSENMSDDEVAMLIFAPGFSTAEQVTDVSGRGVGMDVVKRNIQKMGGHVEIQSKQGTGTTIRILLPLTLAILDGMSVRVADEVFILPLNAVMESLQPREADLHPLAGGERVLEVRGEYLPIVELWKVFNVAGAKTEATQGIVVILQSGGRRYALLVDQLIGQHQVVVKNLESNYRKVPGISAATILGDGSVALIVDVSALQAINREQRMANTAA | – |

— paper PMC9812933
